The values that follow are results of earlier work, collected in publication PMC7221782.

Values joined by “and” are separate entries in the source; they are usually repeats but may differ in a detail not shown here. Equal entries are not always repeated.

For the series, the target named is Gal4 (Saccharomyces cerevisiae) (UniProt P04386).

Take Gal4 (from UniProt P04386): the Kd is 8.5 µM and 20 µM.

Broadly, the Kd is the concentration at which binding is half-saturated.
